Each block holds one binder with its values, some of them ahead of it.
Tests used:
[1] = biological target: native CD40 receptor on HEK-Blue CD40L reporter cells (UniProt P25942 21-277, limits assumed); assay: cell-based or functional assay
[2] = biological target: T1, recombinant CD40 receptor (hu CD40) (human, UniProt P25942 21-193, limits assumed, biotinylated in the MSD assay (site not stated)); assay: MSD electrochemiluminescence plate assay: biotinylated CD40 (10 ug/ml) on streptavidin plates, three-fold dilutions of the test article, anti-human Fc detection (Example 4)
T1 construct: also called biotinylated CD40
Method: Streptavidin sensor plates were coated with 10 ug/ml of biotinylated CD40 overnight at 4° C. The plates were washed 3× with PBS with 0.05% Tween 20 (PBST). Three-fold dilutions series of the test articles were prepared in PBS with 0.2% bovine serum albumin and 50 ul was applied to the plates for 1 hour at RT with shaking. Plates were washed 3× with PBST and anti-human Fc detection reagent at 2 ug/ml final concentration was applied for 1 hour at RT with shaking. The plates were washed 3× with PBST and 150 ul of 1× read buffer was added to the plates and data was collected on MSD instrument. Data was imported into […] Prism 8 software and analyzed and plotted based on the results three separate experiments.

T1 sequence (P25942 21-193 limits assumed): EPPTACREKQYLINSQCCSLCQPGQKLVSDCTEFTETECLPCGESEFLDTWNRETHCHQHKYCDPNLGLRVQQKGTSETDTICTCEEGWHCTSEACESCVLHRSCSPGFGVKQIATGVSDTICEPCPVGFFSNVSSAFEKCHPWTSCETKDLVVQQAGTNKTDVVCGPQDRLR
Sequence of native CD40 receptor on HEK-Blue CD40L reporter cells (P25942 21-277 limits assumed): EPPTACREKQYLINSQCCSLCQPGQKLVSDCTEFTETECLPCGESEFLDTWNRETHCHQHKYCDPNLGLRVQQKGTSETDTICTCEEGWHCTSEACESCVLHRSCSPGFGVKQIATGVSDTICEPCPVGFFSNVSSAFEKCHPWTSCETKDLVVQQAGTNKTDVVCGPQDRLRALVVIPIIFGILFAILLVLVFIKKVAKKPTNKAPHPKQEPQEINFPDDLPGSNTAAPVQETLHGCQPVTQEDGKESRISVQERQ

HEK-Blue reporter assay activity, fold against TPP000161222 [1]: 100 fold
EC50 (read off the curve) [2]: ~0.09 µg/mL
B1: TPP000182983 (Fc fusion)
chain: HTCPPCPAPEAAGGPSVFLFPPKPKDTLMISRTPEVTCVVVSVSHEDPEVKFNWYVDGVEVHNAKTKPREEQYNSTYRVVSVLTVLHQDWLNGKEYKCKVSNKALPAPIEKTISKAKGQPREPQVYTLPPSREEMTKNQVSLTCLVKGFYPSDIAVEWESNGQPENNYKTTPPVLDSDGSFFLYSKLTVDKSRWQQGNVFSCSVMHEALHNHYTQKSLSLSPGGGGGSNPQIAAHVISEASSKTTSVLQWAEKGYYTMSNNLVTLENGKQLTVKRQGLYYIYAQVTFCSNREASSQAPFIASLCLKSPGRFERILLRAANTHSSAKPCGQQSIHLGGVFELQPGASVFVNVTDPSQVSHGTGFTSFGLLKLGGGSGGGSGGGSNPQIAAHVISEASSKTTSVLQWAEKGYYTMSNNLVTLENGKQLTVKRQGLYYIYAQVTFCSNREASSQAPFIASLCLKSPGRFERILLRAANTHSSAKPCGQQSIHLGGVFELQPGASVFVNVTDPSQVSHGTGFTSFGLLKLGGGSGGGSGGGSNPQIAAHVISEASSKTTSVLQWAEKGYYTMSNNLVTLENGKQLTVKRQGLYYIYAQVTFCSNREASSQAPFIASLCLKSPGRFERILLRAANTHSSAKPCGQQSIHLGGVFELQPGASVFVNVTDPSQVSHGTGFTSFGLLKL
notes: Single chain trimeric CD40L fused to the C-terminus of the Fc; also called C4LW16

binding result [2]: binds
B2: TPP000161222 (Fc fusion)
chain: IAAHVISEASSKTTSVLQWAEKGYYTMSNNLVTLENGKQLTVKRQGLYYIYAQVTFCSNREASSQAPFIASLCLKSPGRFERILLRAANTHSSAKPCGQQSIHLGGVFELQPGASVFVNVTDPSQVSHGTGFTSFGLLKLEGKSSGSGSQIAAHVISEASSKTTSVLQWAEKGYYTMSNNLVTLENGKQLTVKRQGLYYIYAQVTFCSNREASSQAPFIASLCLKSPGRFERILLRAANTHSSAKPCGQQSIHLGGVFELQPGASVFVNVTDPSQVSHGTGFTSFGLLKLEGKSSGSGSQIAAHVISEASSKTTSVLQWAEKGYYTMSNNLVTLENGKQLTVKRQGLYYIYAQVTFCSNREASSQAPFIASLCLKSPGRFERILLRAANTHSSAKPCGQQSIHLGGVFELQPGASVFVNVTDPSQVSHGTGFTSFGLLKLVERKSCVECPPCPAPPVAGPSVFLFPPKPKDTLMISRTPEVTCVVVDVSHEDPEVQFNWYVDGVEVHNAKTKPREEQFNSTFRVVSVLTVVHQDWLNGKEYKCKVSNKGLPAPIEKTISKTKGQPREPQVYTLPPSREEMTKNQVSLTCLVKGFYPSDIAVEWESNGQPENNYKTTPPMLDSDGSFFLYSKLTVDKSRWQQGNVFSCSVMHEALHNHYTQKSLSLSPGK
notes: This protein had only 38.76% monomer after protein A; also called C40W33; JNJ75347415

Reference: patent US20240166720A1 (Janssen / Centocor, published 2024)
